Data on 4 molecules can be found in article PMC9482650, “Quantitative fragmentomics allow affinity mapping of interactomes” (Nature Communications, 2022).

Some targets named below: GIPC2, Q8TF65; TJP1_2, Q07157; DLG1_3, Q12959; Inadl_1, Q8NI35; GRIP2_7, Q9C0E4; TJP1_3, Q07157; SCRIB_3, Q14160; DLG2_2, Q15700; MAGI2_2, Q86UL8; LDB3, O75112; GRID2IP_1, A4D2P6; NHERF4_4, Q86UT5; GORASP2, Q9H8Y8; DLG2_3, Q15700; DLG1_1, Q12959; AHNAK1, Q09666; MAGI2_3, Q86UL8.
Holding throughout (test): holdup assay
Parameters in all cases: key: below the threshold = too weak to quantify, mostly under pKd 3.1 to 4

In the next test the target is T1, NHERF3_1, Q5T2W1.
T1 sequence (Q5T2W1 4-100, limits assumed, looked up): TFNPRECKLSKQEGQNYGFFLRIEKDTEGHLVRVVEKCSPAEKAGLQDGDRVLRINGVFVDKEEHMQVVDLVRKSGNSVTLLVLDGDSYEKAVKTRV

The target of a further test is T2, PCLO, Q9Y6V0.
T2 sequence (Q9Y6V0 4491-4600, limits assumed, looked up): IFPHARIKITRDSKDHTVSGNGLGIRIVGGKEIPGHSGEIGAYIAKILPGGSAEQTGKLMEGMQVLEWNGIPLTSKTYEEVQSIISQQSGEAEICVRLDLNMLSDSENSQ

Another test has as its target T3, GRIP1_7, Q9Y3R0.
T3 sequence (Q9Y3R0 999-1096, limits assumed, looked up): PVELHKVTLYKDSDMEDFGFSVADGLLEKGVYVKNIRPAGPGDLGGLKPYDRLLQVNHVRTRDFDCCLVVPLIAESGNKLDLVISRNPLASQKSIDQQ

The target in another test is GOPC, Q9HD26. The note with it: plain residues with an end cap or a label only (N-terminal biotin on a linker: ado-ado).
The target in a further test is T4, MPDZ_10, O75970.
T4 sequence (O75970 1624-1722, limits assumed, looked up): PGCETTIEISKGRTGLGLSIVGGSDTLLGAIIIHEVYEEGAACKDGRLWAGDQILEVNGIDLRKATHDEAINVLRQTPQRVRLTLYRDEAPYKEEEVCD

For another test, the target named is T5, LIN7A, O14910.
T5 sequence (O14910 103-200, limits assumed, looked up): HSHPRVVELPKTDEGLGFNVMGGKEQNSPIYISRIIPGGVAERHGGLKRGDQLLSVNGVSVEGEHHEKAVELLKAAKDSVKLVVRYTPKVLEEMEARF

The next test deals with T6, GRIP1_3, Q9Y3R0.
T6 sequence (Q9Y3R0 247-346, limits assumed, looked up): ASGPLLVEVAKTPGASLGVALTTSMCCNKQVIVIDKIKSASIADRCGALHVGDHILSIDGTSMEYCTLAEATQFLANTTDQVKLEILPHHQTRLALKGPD

The target in the next test is T7, GRIP1_2, Q9Y3R0.
T7 sequence (Q9Y3R0 145-248, limits assumed, looked up): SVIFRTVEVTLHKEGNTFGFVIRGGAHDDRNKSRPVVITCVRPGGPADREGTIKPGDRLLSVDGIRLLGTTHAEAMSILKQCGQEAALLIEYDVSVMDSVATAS

The target in the next test is T8, APBA1_1, Q02410.
T8 sequence (Q02410 651-752, limits assumed, looked up): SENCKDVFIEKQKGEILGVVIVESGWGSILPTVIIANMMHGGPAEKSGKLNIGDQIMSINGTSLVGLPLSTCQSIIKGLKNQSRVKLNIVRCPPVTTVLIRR

Another test deals with T9, TIAM2, Q8IVF5.
T9 sequence (Q8IVF5 885-986, limits assumed, looked up): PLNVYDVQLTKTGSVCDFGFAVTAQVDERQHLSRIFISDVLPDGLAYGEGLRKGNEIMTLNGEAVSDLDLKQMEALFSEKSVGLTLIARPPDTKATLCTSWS

Another test deals with T10, RADIL, Q96JH8.
T10 sequence (Q96JH8 971-1071, limits assumed, looked up): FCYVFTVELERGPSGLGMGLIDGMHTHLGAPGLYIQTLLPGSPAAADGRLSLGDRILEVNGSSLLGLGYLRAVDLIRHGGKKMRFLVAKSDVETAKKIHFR

Setting [1] is: plain residues with an end cap or a label only (N-terminal biotin on a linker: ado-ado).
The mark [2] stands for this setting: modified: phospho on T at position -2 from the C-terminal residue.

As a reminder, the pKd is the negative decadic logarithm of the Kd, by convention in mol/L.

NHERF4_4, Q86UT5, sequence (Q86UT5 464-550): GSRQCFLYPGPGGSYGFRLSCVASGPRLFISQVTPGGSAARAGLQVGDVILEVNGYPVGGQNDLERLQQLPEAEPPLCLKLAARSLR
SCRIB_3, Q14160, sequence (Q14160 999-1103): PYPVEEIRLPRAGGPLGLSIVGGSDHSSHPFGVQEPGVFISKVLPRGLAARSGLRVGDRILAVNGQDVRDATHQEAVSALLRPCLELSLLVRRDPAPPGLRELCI
AHNAK1, Q09666, sequence (Q09666 4-100): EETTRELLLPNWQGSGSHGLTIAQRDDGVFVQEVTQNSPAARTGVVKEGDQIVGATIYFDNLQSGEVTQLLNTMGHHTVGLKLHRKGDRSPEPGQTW
GRIP2_7, Q9C0E4, sequence (Q9C0E4 934-1023): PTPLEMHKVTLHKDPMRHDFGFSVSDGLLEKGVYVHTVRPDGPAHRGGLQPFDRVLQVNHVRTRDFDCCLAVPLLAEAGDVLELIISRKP
GIPC2, Q8TF65, sequence (Q8TF65 112-203): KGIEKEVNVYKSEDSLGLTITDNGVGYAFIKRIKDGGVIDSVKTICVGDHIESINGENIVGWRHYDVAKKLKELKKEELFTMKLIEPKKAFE
Inadl_1, Q8NI35, sequence (Q8NI35 113-229): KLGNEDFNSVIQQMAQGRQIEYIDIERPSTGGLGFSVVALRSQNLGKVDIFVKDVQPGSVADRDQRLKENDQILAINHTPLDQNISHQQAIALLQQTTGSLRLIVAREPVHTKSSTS
LDB3, O75112, sequence (O75112 1-94): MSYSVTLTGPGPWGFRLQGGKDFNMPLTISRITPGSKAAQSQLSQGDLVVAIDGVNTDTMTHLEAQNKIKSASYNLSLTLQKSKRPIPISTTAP
TJP1_3, Q07157, sequence (Q07157 416-512): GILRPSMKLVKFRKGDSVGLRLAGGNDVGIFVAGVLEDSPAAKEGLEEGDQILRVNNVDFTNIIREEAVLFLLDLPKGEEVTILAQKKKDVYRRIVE
GRID2IP_1, A4D2P6, sequence (A4D2P6 1-87): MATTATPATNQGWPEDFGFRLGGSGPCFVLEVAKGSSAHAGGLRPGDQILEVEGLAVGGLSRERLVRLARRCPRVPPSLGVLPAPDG
MAGI2_2, Q86UL8, sequence (Q86UL8 410-522): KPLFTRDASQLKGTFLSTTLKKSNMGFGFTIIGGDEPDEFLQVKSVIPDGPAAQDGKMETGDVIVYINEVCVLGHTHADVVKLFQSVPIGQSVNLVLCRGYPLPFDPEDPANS
TJP1_2, Q07157, sequence (Q07157 181-274): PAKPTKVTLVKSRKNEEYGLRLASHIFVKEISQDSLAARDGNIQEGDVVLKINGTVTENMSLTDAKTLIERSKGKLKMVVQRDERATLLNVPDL
MAGI2_3, Q86UL8, sequence (Q86UL8 600-682): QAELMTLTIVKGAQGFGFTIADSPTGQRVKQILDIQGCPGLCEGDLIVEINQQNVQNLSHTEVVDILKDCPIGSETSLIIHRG

For the molecule IDESKKEWLI [CNTNAP2, Q9UHC6], the pKd entry in the test with GIPC2, Q8TF65 (setting [1]) is “below the threshold”; with TJP1_2, Q07157 (setting [1]), 3.5; in the test with NHERF3_1, Q5T2W1 (setting [1]), “below the threshold”; with DLG1_3, Q12959 (setting [1]), “below the threshold”; with PCLO, Q9Y6V0 (setting [1]) it was “below the threshold”; with GRIP1_7, Q9Y3R0 (setting [1]), “below the threshold”. In addition, the pKd with Inadl_1, Q8NI35 (setting [1]) was 3.93; with GOPC, Q9HD26 it was “below the threshold”; with MPDZ_10, O75970 (setting [1]), “below the threshold”; in the test with LIN7A, O14910 (setting [1]) it was 3.72; with GRIP2_7, Q9C0E4 (setting [1]) it was 4.45; with TJP1_3, Q07157 (setting [1]), “below the threshold”. In addition, the pKd was 3.71 in the test with SCRIB_3, Q14160 (setting [1]); “below the threshold” with DLG2_2, Q15700 (setting [1]); 3.78 with MAGI2_2, Q86UL8 (setting [1]); “below the threshold” with GRIP1_3, Q9Y3R0 (setting [1]); “below the threshold” with LDB3, O75112 (setting [1]); “below the threshold” with GRIP1_2, Q9Y3R0 (setting [1]). For the same molecule, the negative-log Kd (pKd) result in the test with APBA1_1, Q02410 (setting [1]) is “below the threshold”; with TIAM2, Q8IVF5 (setting [1]) it was 3.81; with GRID2IP_1, A4D2P6 (setting [1]) it was “below the threshold”; with NHERF4_4, Q86UT5 (setting [1]), “below the threshold”; in the test with GORASP2, Q9H8Y8 (setting [1]), 3.94; in the test with DLG2_3, Q15700 (setting [1]) it was 3.57. Moreover, the pKd result was “below the threshold” with DLG1_1, Q12959 (setting [1]); “below the threshold” with AHNAK1, Q09666 (setting [1]); 3.76 in the test with RADIL, Q96JH8 (setting [1]); 3.5 with MAGI2_3, Q86UL8 (setting [1]).

For KSRVAFFEEL [NF2, P35240;P35240-1], the negative logarithm of the Kd (pKd) in the test with NHERF3_1, Q5T2W1 (setting [1]) was 4.18; with PCLO, Q9Y6V0 (setting [1]), “below the threshold”; with Inadl_1, Q8NI35 (setting [1]), “below the threshold”; with MPDZ_10, O75970 (setting [1]) it was “below the threshold”; with GRIP2_7, Q9C0E4 (setting [1]), “below the threshold”; in the test with TJP1_3, Q07157 (setting [1]), “below the threshold”. The pKd result is recorded as “below the threshold” with MAGI2_2, Q86UL8 (setting [1]); “below the threshold” with GRIP1_3, Q9Y3R0 (setting [1]); “below the threshold” in the test with GRIP1_2, Q9Y3R0 (setting [1]); “below the threshold” with APBA1_1, Q02410 (setting [1]); “below the threshold” with TIAM2, Q8IVF5 (setting [1]); “below the threshold” with GRID2IP_1, A4D2P6 (setting [1]). Moreover, the pKd entry is “below the threshold” with NHERF4_4, Q86UT5 (setting [1]); “below the threshold” in the test with DLG2_3, Q15700 (setting [1]); “below the threshold” in the test with DLG1_1, Q12959 (setting [1]); “below the threshold” with AHNAK1, Q09666 (setting [1]); 4.44 with RADIL, Q96JH8 (setting [1]).

Take SSRTRRETQL [HPV16-E6_-2P, P03126]: the pKd result is “below the threshold” with GIPC2, Q8TF65 (setting [2]); “below the threshold” with TJP1_2, Q07157 (setting [2]); 3.79 with NHERF3_1, Q5T2W1 (setting [2]); “below the threshold” with DLG1_3, Q12959 (setting [2]); “below the threshold” with PCLO, Q9Y6V0 (setting [2]); “below the threshold” in the test with GRIP1_7, Q9Y3R0 (setting [2]). The pKd entry in the test with Inadl_1, Q8NI35 (setting [2]) is listed as “below the threshold”; in the test with MPDZ_10, O75970 (setting [2]), “below the threshold”; with LIN7A, O14910 (setting [2]), “below the threshold”; in the test with GRIP2_7, Q9C0E4 (setting [2]) it was “below the threshold”; with TJP1_3, Q07157 (setting [2]) it was “below the threshold”; with SCRIB_3, Q14160 (setting [2]), “below the threshold”. Further, the pKd result was “below the threshold” with DLG2_2, Q15700 (setting [2]); “below the threshold” with MAGI2_2, Q86UL8 (setting [2]); “below the threshold” in the test with GRIP1_3, Q9Y3R0 (setting [2]); “below the threshold” with LDB3, O75112 (setting [2]); “below the threshold” in the test with GRIP1_2, Q9Y3R0 (setting [2]); “below the threshold” in the test with APBA1_1, Q02410 (setting [2]). For the same molecule, the negative logarithm of the Kd (pKd) entry with TIAM2, Q8IVF5 (setting [2]) is on record as “below the threshold”; with GRID2IP_1, A4D2P6 (setting [2]) it was “below the threshold”; in the test with NHERF4_4, Q86UT5 (setting [2]), “below the threshold”; in the test with GORASP2, Q9H8Y8 (setting [2]), “below the threshold”; with DLG2_3, Q15700 (setting [2]), “below the threshold”; with DLG1_1, Q12959 (setting [2]), “below the threshold”. For the same molecule, the negative logarithm of the Kd (pKd) entry is listed as “below the threshold” in the test with AHNAK1, Q09666 (setting [2]); “below the threshold” with RADIL, Q96JH8 (setting [2]); “below the threshold” with MAGI2_3, Q86UL8 (setting [2]).

Consider KRPEMTSSSV [MUC3A, MUC3B, Q02505;Q9H195], for which the pKd with GIPC2, Q8TF65 (setting [1]) is 3.73; in the test with DLG1_3, Q12959 (setting [1]) it was “below the threshold”; with PCLO, Q9Y6V0 (setting [1]), “below the threshold”; with GRIP1_7, Q9Y3R0 (setting [1]), “below the threshold”; in the test with Inadl_1, Q8NI35 (setting [1]), “below the threshold”; with MPDZ_10, O75970 (setting [1]), 3.73. The pKd entry in the test with LIN7A, O14910 (setting [1]) was “below the threshold”; in the test with GRIP2_7, Q9C0E4 (setting [1]), “below the threshold”; with TJP1_3, Q07157 (setting [1]), “below the threshold”; in the test with SCRIB_3, Q14160 (setting [1]), 1.79; in the test with DLG2_2, Q15700 (setting [1]) it was 3.54; in the test with MAGI2_2, Q86UL8 (setting [1]), 3.65. Moreover, the pKd result is “below the threshold” with GRIP1_3, Q9Y3R0 (setting [1]); “below the threshold” in the test with LDB3, O75112 (setting [1]); “below the threshold” with GRIP1_2, Q9Y3R0 (setting [1]); “below the threshold” in the test with APBA1_1, Q02410 (setting [1]); 1.96 with TIAM2, Q8IVF5 (setting [1]); “below the threshold” in the test with GRID2IP_1, A4D2P6 (setting [1]). For the same molecule, the pKd entry in the test with GORASP2, Q9H8Y8 (setting [1]) is “below the threshold”; with DLG2_3, Q15700 (setting [1]), 3.88; with DLG1_1, Q12959 (setting [1]), 1.76; with AHNAK1, Q09666 (setting [1]), “below the threshold”; with RADIL, Q96JH8 (setting [1]) it was “below the threshold”.
